Assay results as given in paper PMC9477564 (Nature structural & molecular biology, 2021).

Target: the molecule itself
Assay: SEC-MALS

B1: Get3(D68N) (enzyme)
chain: not shown
stoichiometry N: 2
